Laboratory results taken from paper PMC6153294 (The Journal of Biological Chemistry, 2018).

Biological target: T1, recombinant FGFR1c extracellular domain protein (Homo sapiens, UniProt P11362)
T1 construct: FGF receptor 1, 'c' splice isoform, human, extracellular domain; also called human FGFR1c
Experiment: SPR; kinetic-binding assay on Biacore T200: His-tagged human β-Klotho and FGFR1c captured (about 40 RU and 60 RU) on immobilised mouse anti-His antibody (CM5); 39F7 (100 nM) and FGF21 (500 nM) injected in PBS, 0.1 mg/ml BSA, 0.005% Surfactant P20
Conditions: both partners purified

T1 sequence (P11362 22-376): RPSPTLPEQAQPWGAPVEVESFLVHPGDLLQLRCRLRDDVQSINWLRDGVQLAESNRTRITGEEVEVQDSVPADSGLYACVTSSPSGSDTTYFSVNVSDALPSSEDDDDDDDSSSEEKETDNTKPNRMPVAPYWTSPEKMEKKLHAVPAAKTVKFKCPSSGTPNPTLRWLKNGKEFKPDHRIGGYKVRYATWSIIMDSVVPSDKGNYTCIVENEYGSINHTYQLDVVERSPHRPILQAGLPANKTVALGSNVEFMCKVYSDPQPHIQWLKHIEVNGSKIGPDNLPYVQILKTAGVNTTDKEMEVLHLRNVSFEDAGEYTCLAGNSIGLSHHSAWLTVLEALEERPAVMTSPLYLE

B1: 39F7 agonistic monoclonal antibody against β-Klotho (full IgG) (antibody, V domains shown)
VH: QVQLVESGGGVVQPGRSLRLSCAASGFTFSNYGIHWVRQAPGKGLEWVAVIWYDGSIKYYADSVKGRFTISRDNSKNTLYLQMNSLRAEDTAVYYCARDRAAAGLHYYYGMDVWGQGTTVTVSS
VL: not shown
notes: Identified from an immunisation campaign in XenoMouse with a complex of β-Klotho and FGFR1c; also called mAb 39F7; 39F7 IgG; copies: 2 + 2
B1: no binding (tested: 100 nM).
